Assay results published in the DeepSol protein solubility set.

Experiment: soluble on expression in E. coli; label from the status in PepcDB or PDB records

| Sequence | soluble on expression in E. coli |
| --- | --- |
| MFISDKSRPTDFYKDDHHNSSTTSTTRDMMIDVLTTTNESVDLQSHHHHNHHNHHLHQSQPQQQILLGESSGEDHEVKAPKKRAETWVQDETRSLIMFRRGMDGLFNTSKSNKHLWEQISSKMREKGFDRSPTMCTDKWRNLLKEFKKAKHHDRGNGSAKMSYYKEIEDILRERSKKVTPPQYNKSPNTPPTSAKVDSFMQFTDKGFDDTSISFGSVEANGRPALNLERRLDHDGHPLAITTAVDAVAANGVTPWNWRETPGNGDDSHGQPFGGRVITVKFGDYTRRIGVDGSAEAIKEVIRSAFGLRTRRAFWLEDEDQIIRCLDRDMPLGNYLLRLDDVCKTHLAGLAIRVCHYDESNQLPVHSEEKIFYTEEDYREFLARQGWSSLQVDGFRNIENMDDLQPGAVYRGVR | soluble |
| MRQIETQQLEAETSFTERIAEDRVKCAAQRESLERQLQDLTATDNKLSEQKRDWEERQEKAYDELMSYLENEDVDSAGTQFGDHFNSLIKSMNNLSHDSMNGQFNSLKNNLDELNIEKKQLEVAIADQSSTISEMIPSLRPTCGATYKERNTLRIIFHYQVAKLRSEYQKCRLQEEALKARLST | not soluble |
| MSLKQIVGHKLLNDVIRPLKKGDGRSAWNVLIVDTLAMRMLSSCCKMHNIMEEGITIVEDLNKRREPLPTLEAIYLIAPTAESIDKLIQDYCARNLYKCAHVFFTEACSDQLFSTLSKSAAARFIKTLKEINIAFTPYESQVFNLDSPDTFFLYYNAQKQGGLTSNLERIAEQIATVCATLGEYPSLRYRADFERNVELGHLVEQKLDAYKADDPSMGEGADKARSQLIIIDRGYDAITPLLHELTLQAMCYDLLGIENDVYKYETGGSDENLEKEVLLDENDDLWVEMRHKHIAVVSQEVTKNLKKFSESKGNKGTMDSKSIKDLSMLIKRMPQHKKELNKFSTHISLAEECMKQYQQGVDKLCKVEQDLSTGIDAEGERVRDAMKLMVPLLIDPAVRCEDRLRLILLYILSKNGITDENLNKLLQHANISMADKETITNAAYLGLNIVTDTGRKKTWTPTKKERPHEQVYQSSRWVPVIKDIIEDAIDERLDTKHFPFLAGRQVNQGYRAPASARYGQWHKERGQQSNYRSGPRLIIYIIGGVTFSEMRACYEVTAARKPWEVVIGSDRIITPDKFLTNLRDLNKPRDI | not soluble |
| MRGFLMFTSGPFDIDFVVLWVDGSDEKWLQKRAIYSSTKQQNNAVRFRDYGIFKYWFRAVAKYAPWVHHVYLVTDEQIPNWLSIQNSKVSVIDHKSIMPEDALPTFNSSAIELNIANIPGLSEHFVYFNDDMFLNRQVTPMDFFSEDGLPKDSAVQNAIMPVEDFDHMTANNVMLINQNFNKYQVLRRHPFRFFNFRYGFLNVLSICLLPWPRFTRFQDPHVPISFRKSVFEKVLNLHRDAWNETSHNRFRNRNDNTIWLIRYYQLVTAQFNPRTPFVGKKYNIGEMKKIVNDINTGKHKMICINDQNVSMAEFDNLTKQLRSTFRSKLPQKSEFEKMAGDPLEHHHHHH | not soluble |
| MLKAMEHPAYSQLRPVTPSAGVVLCPNPGYSSLEGTNSWVVRAEGDRCSIVIDPGPADEGHLNVLHGKAETVGLVLLTHRHHDHADGAERFRQLTGAAIRAQQAPYCHGGDVLRDGEIIAIDGVTPQLEVVFTPGHTSDSVCFFVWSGVPHESNLEGIITGDTIAGRHTTMISETDGDLGQYLNTLALLEKRGKGIALLPGHGPDGDDVASFAHWYIERRMQRLEQIKEAIAQRGADVPIKELIDAVYDDVDPVLRGAAEQSTRVALRYLAQQQ | not soluble |
| MAHHHHHHMQTVPSFQKTTSFHCSKAGRVLYSFREASRISGTHLPIVSAVDSYTLDSVFSEEVRPSFKSFAVDPSDRYCAAILDQDIDSVIRLFSLSAGPYPDHGAFASPAVQEEQDSAMGADEEEMEQWSIEDDDYDTDDSTDSNDDEFEEDEDDDDDSYDEEDAEEEFEEWEEEDEEESSPGTGSGSDEQEGTQASSRHAN | soluble |
| MAHHHHHHMGTLEAQTQGPGSMDEVLLVKKLVEDAIVPTRGSKCAAGIDLYSNTNFIIQPHERFLVSTGVSVQIPHQCYGRIAPRSSLALKYGIDVGAGVIDEDYRGEIKVILFNHSNEIFNGRKGDRIAQLIIERISYCRISEVKELNTTDRGTNGFGSTGK | soluble |
| MGSDKIHHHHHHMSRVGIPRSLFYYYYYPLWKSFFSDLGVEILTSAPSNRHTVERGIELAVDETCFPIKVYLGHVAELCREELDYLFIPRLVSVEARSYICPKFMGLPDIVRALIKETPPLIDITVDLSRDEKCFKKDIIRVGRLFTRQASRIQLAYQHGCEELRLCRSLASQGFTMEEAIKIWEGGAMEAEPETDLNIGVLGHGYSLYDERISMNLVKRLRAMNCKVLLPEHLGSEVVEAEAATVPKRVFWTLGRKMLGSALHLSQREDVDGIIYLACFGCGPDSLIGEIIERKVRDCKPFILLTVDEHSGEAGIITRLEAFCDMLRRRRNCGSESKLSPYGVSLHSFENTV | not soluble |
| MSLTEFLERNAALYGSEKCLTEINLDLQESHNVIWREYELIENNPAGEYRRDMTWKVFDEKANRFANLLIKRGIKKGDKVAILLMNCLEWLPIYFGILKAGAVAVPLNFRYTAEEIKYCLELSDSIALVFGPEFIGRIENIYDQIIPKIKLLLFAGENRPSFAESYDRLTANCPSEAPKVEITDDDDAAIYFSSGTTGFPKAILHAHRSLVSACYTEQKHHGQTREDNFLCIPPLYHTGAKMHWFGSLLSGSKAVLLRGIKPEWILRTVSEEKITIVWLLVPWAQDILDAIERGDVKLEDYDLSQWRLMHIGAQPVPPSLIRRWKKYFPHHLYDTNYGLSESAGPGCVHLGVENIHKVGAIGLPGYNWEAKIVDENGCPVKQGEVGELAVKGPGVMKCYYKDPEATAAVLKDGWLLTGDMARMDEDGFIYLVDRKKDVIISGGENIYPVQIEDFLRSHEAIKDAAVIGLPDKRLGEIAAAIIELKPGFECTEEEINKFCLVLPRYKRPRKIIFDKVPRNPTGKIEKPRLREKYGVVALVEAETEGHHHHHH | soluble |
| VAAAPRSPEDRRAQILDVAVRLLETVPFDDLSMDQVAAEAGVSPPLLFHYFKNKQGFRNAVLEASASELQRRMTPDAALPVSGQLRAGVETFADAVIEHPTIYLAVMRMAGSGDERMRQIYRGMRRTFTRWIGASLAEFGVPTTPALEAAISGWQAFMEEIVLSWLDEPTMDRTDMIDLCERAFYHLLPAAGVDVDALDVTR | soluble |
| MALPQDSVNMALFCDFENIALGVRDTKFEKFDIKPVLEKLLLKGSIVVKKAYCDWDRYKTFKAAMHEASFELIEIPHVRQSGKNSADIRLVVDALDLCYTKAHVDTFVIISGDSDFSPLVSKLRENAKRVIGVGVKNSTSDLLVANCDEFIFYDDLAR | not soluble |
| MGSDKIHHHHHHMLVVIPQVLNAEQVGAVRERLEHAGEAWVDGRVTAGYSGAPVKFNQQIDERSDVALECQRLILGMLERNPRFISAALPNIVYPPMFNRYSEGMTFGAHVDGSVRIHPHDGRKLRTDISATLFLSPHDSYDGGELQVQDTYGMHSVKLDAGDMVVYPATSLHQVTPITRGTRVASFFWIQSLIRDDTQRSLLFDMDNAIQRLNQTGADEEARRTLVGCYHNLLRQWSET | not soluble |
| STPETLPGHTKAKQPYREDTEWLKGQQIGLGAFSSCYQAQDVGTGTLMAVKQVTYVRNTSSEQEEVVEALREEIRMMSHLNHPNIIRMLGATCEKSNYNLFIEWMAGGSVAHLLSKYGAFKESVVINYTEQLLRGLSYLHENQIIHRDVKGANLLIDSTGQRLRIADFGAAARLASKGTGAGEFQGQLLGTIAFMAPEVLRGQQYGRSCDVWSVGCAIIEMACAKPPWNAEKHSNHLALIFKIASATTAPSIPSHLSPGLRDVALRCLELQPQDRPPSRELLKHPVFRTTW | soluble |
| MGSDKIHHHHHHAASVTPSSALLKKSNSYYRSHARALGKKYKLAFDAQSALKKNGKAVIYVNTKDKTLNQSVKLAMAYWNKKLGKTEFTQGSKKNHTLTFGVSTAAASKSDQSDAWWTPMTKKLDVRWSYYTAEKQNIGISMTNQLNKAFYKQYADTIETKAKANLAAKGITTSDKDYLSPFNREASNVETSLPAYTTLKKDVCLVKSTLANEGRKYEYASTIAHEMGHVMGLNHSPNKQDLMYFESGNNNVYSFKKVKAGLSKYNPITTTDKNRAKLALKIYVAAH | not soluble |
| GMTTWKELTDNNPAHSENYAQRWRNLAAAGNDIYGEARLIDAMAPRGAKILDAGCGQGRIGGYLSKQGHDVLGTDLDPILIDYAKQDFPEARWVVGDLSVDQISETDFDLIVSAGNVMGFLAEDGREPALANIHRALGADGRAVIGFGAGRGWVFGDFLEVAERVGLELENAFESWDLKPFVQGSEFLVAVFTKK | soluble |
| MGSDKIHHHHHHKAPLDEIADDSFWSDETLVKYYVNDLYSEISVDGLQLQENRSDNSVSAQRDKYRASWFKFNYDMVSASDPQDDDVWEDYYVKVRKCNRFFERIGTSTIEESEKSRLTGEVHFLRAMFYFEMVKRYGGVILLDKVLTMEDNWEIPRSSEKECYDFILEDLKKATEMLPASYGSREKGRATKGAAYALKSRVELYDKRYEDVIKSCAEVYKLGYELVDGTTPEKYRSIWWTTNKDNKEIIFDVQYKSPDVYNNMMVCNMVTYINDKYGDRGWGGLGPTQELIDAFEMADGTPATQYSQAPADQVFDINTCGIYEGREPRFYANIVFHGSQIFFNADKGAVTVDRYLMDTPDKGDGSLTGYNVWKWIDYDNYNYPYAGAGSPDFSTNWIILRYAEIYLNDAEARLETGDVEGARKAVNMIRQRVGLPDLTESDPEKLRELIRKERRIEFAFEEQRFYDVRRWKIGPETQTTLHGVRFVSPTEFKVTKTDIRTWNDRLYLTPVPHDEIVRSSVLKQNLGY | not soluble |
| MIGVGKMKQYSNVLDKPLSKGKQEVSLTAFAFLFSELVQYNQTQVDNIAELERRLEDAGYAVGSRVLELLCNREKGNRRETRLLGILSFVHSTVWKVLFGKVADSLEKGTEHEDEYMISEKELLVNRFISIPKDMGTFNCGAFVAGIVKGVLDNAGFPAVVTAHFVPIEGQQRPRTTILIKFADEVLKREARLSQ | soluble |
| MGSDKIHHHHHHMSSYVVSQEDVKNFLNLPSMNDQEGISFAYATDPDALAKLIPAPLKLVAPVVCGYVVHMGKPSFGGPYLEQTLFALVSYKDKMMGSYPLTLLLHGPGAEAGLVAGREGAGIPKKLADHIELRRNDNSASATVERHGKTLLSVDWEAGDVNDPSILQTFGSQFALNKESEMNSFFFTHDLVQDKQGANHFENVELVATQMKSLADRVEPGKLSIQLASTEDDPFGELPVLKPLGAMWYHFATSTMFNTLHLEQVDADKTAPYLITGRYDRSMMNPLATTYII | not soluble |
| SLLDTLLINIGQLLTMDQEDGLLRREAMNTLPVIENGAVGIENGVITFVGTAEEAKGLQAKEVIDCGGKMVSPGLVDPHTHLVFGGSRENEIALKLQGVPYLEILEQGGGILSTVNATKQSSKEELVQKAKFHLDRMLSFGVTTVEAKSGYGLDDETEWKQLEATAQLQKEHPIDLVSTFLGAHAVPKEYKGRSKEFLQWMLDLLPEMKEKQLAEFVDIFCETGVFSVEESKEFLLKAKELGFDVKIHADEIDPLGGAEAAAEIGAASADHLVGASDKGIEMLANSNTVATLLPGTTFYLNKESFARGRKMIDEGVAVALATDFNPGSCPTENIQLIMSIAMLKLKMTPEEVWNAVTVNSSYAINRGDVAGKIRVGRKADLVLWDAYNYAYVPYHYGVSHVNTVWKNGNIAYTRGEQSWSTATI | soluble |
